Test results as given in publication PMC5325763 (Cell, 2017).

Target: T1, FLAG-tagged FAAP20 (human, UniProt Q6NZ36 1-180)
T1 sequence (looked up): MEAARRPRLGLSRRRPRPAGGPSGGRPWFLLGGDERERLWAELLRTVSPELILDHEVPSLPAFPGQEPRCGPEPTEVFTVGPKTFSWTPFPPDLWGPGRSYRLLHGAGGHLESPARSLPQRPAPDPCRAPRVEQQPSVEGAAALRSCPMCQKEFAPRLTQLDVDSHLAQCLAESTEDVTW
Assay: LUMIER

fold weaker binding than wild-type FANCA: ~8 fold
B1: Renilla luciferase-tagged FANCA R880Q (natural protein, human, UniProt O15360-1 1-1455, looked up)
chain: MSDSWVPNSASGQDPGGRRRAWAELLAGRVKREKYNPERAQKLKESAVRLLRSHQDLNALLLEVEGPLCKKLSLSKVIDCDSSEAYANHSSSFIGSALQDQASRLGVPVGILSAGMVASSVGQICTAPAETSHPVLLTVEQRKKLSSLLEFAQYLLAHSMFSRLSFCQELWKIQSSLLLEAVWHLHVQGIVSLQELLESHPDMHAVGSWLFRNLCCLCEQMEASCQHADVARAMLSDFVQMFVLRGFQKNSDLRRTVEPEKMPQVTVDVLQRMLIFALDALAAGVQEESSTHKIVRCWFGVFSGHTLGSVISTDPLKRFFSHTLTQILTHSPVLKASDAVQMQREWSFARTHPLLTSLYRRLFVMLSAEELVGHLQEVLETQEVHWQRVLSFVSALVVCFPEAQQLLEDWVARLMAQAFESCQLDSMVTAFLVVRQAALEGPSAFLSYADWFKASFGSTRGYHGCSKKALVFLFTFLSELVPFESPRYLQVHILHPPLVPGKYRSLLTDYISLAKTRLADLKVSIENMGLYEDLSSAGDITEPHSQALQDVEKAIMVFEHTGNIPVTVMEASIFRRPYYVSHFLPALLTPRVLPKVPDSRVAFIESLKRADKIPPSLYSTYCQACSAAEEKPEDAALGVRAEPNSAEEPLGQLTAALGELRASMTDPSQRDVISAQVAVISERLRAVLGHNEDDSSVEISKIQLSINTPRLEPREHMAVDLLLTSFCQNLMAASSVAPPERQGPWAALFVRTMCGRVLPAVLTRLCQLLRHQGPSLSAPHVLGLAALAVHLGESRSALPEVDVGPPAPGAGLPVPALFDSLLTCRTRDSLFFCLKFCTAAISYSLCKFSSQSRDTLCSCLSPGLIKKFQFLMFRLFSEAQQPLSEEDVASLSWRPLHLPSADWQRAALSLWTHRTFREVLKEEDVHLTYQDWLHLELEIQPEADALSDTERQDFHQWAIHEHFLPESSASGGCDGDLQAACTILVNALMDFHQSSRSYDHSENSDLVFGGRTGNEDIISRLQEMVADLELQQDLIVPLGHTPSQEHFLFEIFRRRLQALTSGWSVAASLQRQRELLMYKRILLRLPSSVLCGSSFQAEQPITARCEQFFHLVNSEMRNFCSHGGALTQDITAHFFRGLLNACLRSRDPSLMVDFILAKCQTKCPLILTSALVWWPSLEPVLLCRWRRHCQSPLPRELQKLQEGRQFASDFLSPEAASPAPNPDWLSAAALHFAIQQVREENIRKQLKKLDCEREELLVFLFFFSLMGLLSSHLTSNSTTDLPKAFHVCAAILECLEKRKISWLALFQLTESDLRLGRLLLRVAPDQHTRLLPFAFYSLLSYFHEDAAIREEAFLHVAVDMYLKLVQLFVAGDTSTVSPPAGRSLELKGQGNPVELITKARLFLLQLIPRCPKKSFSHVAELLADRGDCDPEVSAALQSRQQAAPDADLSQEPHLF
